Source: US20220185889

Biological target: CTLA-4 Ig functionalized with GzmB substrate (UniProt P16410)
Sequence (P16410 38-161): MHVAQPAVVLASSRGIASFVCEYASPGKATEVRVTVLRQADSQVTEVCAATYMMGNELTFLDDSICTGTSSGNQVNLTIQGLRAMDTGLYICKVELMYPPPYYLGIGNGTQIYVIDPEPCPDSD

B1: complement component S1 (enzyme, UniProt P09871 16-688, looked up, species assumed)
Complement C1s subcomponent: EPTMYGEILSPNYPQAYPSEVEKSWDIEVPEGYGIHLYFTHLDIELSENCAYDSVQIISGDTEEGRLCGQRSSNNPHSPIVEEFQVPYNKLQVIFKSDFSNEERFTGFAAYYVATDINECTDFVDVPCSHFCNNFIGGYFCSCPPEYFLHDDMKNCGVNCSGDVFTALIGEIASPNYPKPYPENSRCEYQIRLEKGFQVVVTLRREDFDVEAADSAGNCLDSLVFVAGDRQFGPYCGHGFPGPLNIETKSNALDIIFQTDLTGQKKGWKLRYHGDPMPCPKEDTPNSVWEPAKAKYVFRDVVQITCLDGFEVVEGRVGATSFYSTCQSNGKWSNSKLKCQPVDCGIPESIENGKVEDPESTLFGSVIRYTCEEPYYYMENGGGGEYHCAGNGSWVNEVLGPELPKCVPVCGVPREPFEEKQRIIGGSDADIKNFPWQVFFDNPWAGGALINEYWVLTAAHVVEGNREPTMYVGSTSVQTSRLAKSKMLTPEHVFIHPGWKLLEVPEGRTNFDNDIALVRLKDPVKMGPTVSPICLPGTSSDYNLMDGDLGLISGWGRTEKRDRAVRLKAARLPVAPLRKCKEVKVEKPTADAEAYVFTPNMICAGGEKGMDSCKGDSGGAFAVQDPNDKTKFYAAGLVSWGPQCGTYGLYTRVKNYVDWIMKTMQENSTPRED
in vitro cleavage assay: no cross-cleavage by matrix, complement, or immune proteases
